Laboratory results taken from publication PMC6395372, “Myosin Va interacts with the exosomal protein spermine synthase” (Bioscience Reports, 2019).

Tests used:
[1] = molecular target: the molecule itself; assay: SEC; Superdex 75 pg 16/600, 20 mM HEPES, 150 mM NaCl, 5% glycerol, pH 7.4; SMS dimers at Ve ~70 mL
[2] = molecular target: T1, MyoVa-GTD, wild type (globular tail domain of myosin Va) (human, UniProt Q9Y4I1 1448-1855); assay: MST; Monolith NT.115, LED power 40%, MST power 60%; 50 nM His-tagged SMS labelled with RED-tris-NTA, serial dilution of MyoVa-GTD; 20 mM HEPES, 150 mM NaCl, 5% glycerol, pH 7.4; triplicate; Hill fit; settings: both partners purified
T1 construct: Myosin Va, human, wild-type globular tail domain; limits are printed only for the EE two-hybrid construct (1448-1855 of NP_000250.3); In pET28a-TEV; Limits probably 1448-1855 as for the EE construct; also called TEV-treated MyoVa-GTD; source: E. coli BL21(DE3)∆SlyD pRARE2, purified (HiTrap Chelating, TEV cleavage, Superdex 200)
T1 sequence (Q9Y4I1 1448-1855): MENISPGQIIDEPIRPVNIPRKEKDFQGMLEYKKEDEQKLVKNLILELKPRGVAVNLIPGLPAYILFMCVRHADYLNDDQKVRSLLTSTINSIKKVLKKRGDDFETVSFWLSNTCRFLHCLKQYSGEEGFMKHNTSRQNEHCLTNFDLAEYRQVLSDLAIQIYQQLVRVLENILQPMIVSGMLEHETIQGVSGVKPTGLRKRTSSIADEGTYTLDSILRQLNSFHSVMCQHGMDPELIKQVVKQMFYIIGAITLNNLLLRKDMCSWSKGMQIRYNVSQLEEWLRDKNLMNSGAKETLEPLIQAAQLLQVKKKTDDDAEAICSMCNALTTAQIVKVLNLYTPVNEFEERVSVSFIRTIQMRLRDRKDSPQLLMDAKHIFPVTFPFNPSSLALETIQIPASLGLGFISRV

Kd [2]: 3.5 ± 0.5 µM
B1: Spermine synthase (SMS), full length, His-tagged (enzyme, human, UniProt P52788-1 1-366, looked up)
chain: MAAARHSTLDFMLGAKADGETILKGLQSIFQEQGMAESVHTWQDHGYLATYTNKNGSFANLRIYPHGLVLLDLQSYDGDAQGKEEIDSILNKVEERMKELSQDSTGRVKRLPPIVRGGAIDRYWPTADGRLVEYDIDEVVYDEDSPYQNIKILHSKQFGNILILSGDVNLAESDLAYTRAIMGSGKEDYTGKDVLILGGGDGGILCEIVKLKPKMVTMVEIDQMVIDGCKKYMRKTCGDVLDNLKGDCYQVLIEDCIPVLKRYAKEGREFDYVINDLTAVPISTSPEEDSTWEFLRLILDLSMKVLKQDGKYFTQGNCVNLTEALSLYEEQLGRLYCPVEFSKEIVCVPSYLELWVFYTVWKKAKP
modifications: RED-tris-NTA dye label on the His-tag (in the MST assay)
notes: Spermine synthase, human, full-length ORF (NM_004595.4, 253-1353 pb) amplified from a human cDNA library; In pET28a-TEV; the fractions with SMS dimers were used in MST; also called 6xHis-SMS; His-tagged-labeled-SMS; source: E. coli BL21(DE3)∆SlyD pRARE2, purified (HiTrap Chelating, Superdex 75)
stoichiometry N [1]: 2
